Data from patent US20120277286A1, “COMPOSITIONS AND METHODS FOR THE TREATMENT OR PREVENTION OF MITOCHONDRIAL DISEASES” (The Government of the USA, as represented by the Secretary, …, priority 2009, published 2012).
“And” between values parts separate entries of the source, which are not always exact repeats. Identical values can stand only once.

Test system: HeLa cells
Test: Parkin colocalization with mitochondria scored by confocal microscopy
Format: cell-based
Details: for YFP-Parkin (wild type or indicated mutant) colocalization with mitochondria, % of cells: HeLa cells, 10 μM CCCP, 1 hour; for cells with YFP-Parkin co-localized with TMRE: HeLa, no CCCP, YFP-Parkin alone or with PINK1-myc 1:4
Method in brief: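 Transfected HeLa cells fixed 12–24 h post-transfection in 4% paraformaldehyde. Cells immunostained for mitochondrial markers and imaged by confocal microscopy. Parkin recruitment to mitochondria assessed by line-scan colocalization.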

Molecule	YFP-Parkin (wild type or indicated mutant) colocalization with mitochondria, % of cells	cells with YFP-Parkin co-localized with TMRE [%]
N#CC(C#N)=NNc1cccc(Cl)c1 [CCCP, carbonyl cyanide m-chlorophenylhydrazone]	78.49±2.61% and 96.0±3.5%	–
PINK1: exogenously expressed wild type PINK1 (V5 or myc tagged) (protein, UniProt Q9BXM7 78-581, looked up, V5 or myc tag) Serine/threonine-protein …: AARLQRQFVVRAWGCAGPCGRAVFLAFGLGLGLIEEKQAESRRAVSACQEIQAIFTQKSKPGPDPLDTRRLQGFRLEEYLIGQSIGKGCSAAVYEATMPTLPQNLEVTKSTGLLPGRGPGTSAPGEGQERAPGAPAFPLAIKMMWNISAGSSSEAILNTMSQELVPASRVALAGEYGAVTYRKSKRGPKQLAPHPNIIRVLRAFTSSVPLLPGALVDYPDVLPSRLHPEGLGHGRTLFLVMKNYPCTLRQYLCVNTPSPRLAAMMLLQLLEGVDHLVQQGIAHRDLKSDNILVELDPDGCPWLVIADFGCCLADESIGLQLPFSSWYVDRGGNGCLMAPEVSTARPGPRAVIDYSKADAWAVGAIAYEIFGLVNPFYGQGKAHLESRSYQEAQLPALPESVPPDVRQLVRALLQREASKRPSARVAANVLHLSLWGEHILALKNLKLDKMVGWLLQQSAATLLANRLTEKCCVETKMKMLFLANLECETLCQAALLLCSWRAAL	–	45.3±7.6
YFP-Parkin: YFP-tagged Parkin E3 ligase expressed from a transfected vector (protein, UniProt O60260 1-465, looked up, YFP fusion, YFP-tagged Parkin E3 ligase expressed from a transfected vector) E3 ubiquitin-protein ligase …: MIVFVRFNSSHGFPVEVDSDTSIFQLKEVVAKRQGVPADQLRVIFAGKELRNDWTVQNCDLDQQSIVHIVQRPWRKGQEMNATGGDDPRNAAGGCEREPQSLTRVDLSSSVLPGDSVGLAVILHTDSRKDSPPAGSPAGRSIYNSFYVYCKGPCQRVQPGKLRVQCSTCRQATLTLTQGPSCWDDVLIPNRMSGECQSPHCPGTSAEFFFKCGAHPTSDKETSVALHLIATNSRNITCITCTDVRSPVLVFQCNSRHVICLDCFHLYCVTRLNDRQFVHDPQLGYSLPCVAGCPNSLIKELHHFRILGEEQYNRYQQYGAEECVLQMGGVLCPRPGCGAGLLPEPDQRKVTCEGGNGLGCGFAFCRECKEAYHEGECSAVFEASGTTTQAYRVDERAAEQARWEAASKETIKKTTKPCPRCHVPVEKNGGCMHMKCPQPQCRLEWCWNCGCEWNRVCMGDHWFDV	94.7±5.8%	0±0
